Legend:
[1] = biological target: T1, CA125 (Homo sapiens, UniProt Q8WXI7); assay: Immunofluorescence of CA125 at the cell surface, transient transfection of OVCAR-3 cells; format: cell-based; conditions: transiently transfected OVCAR-3 cells
T1 construct: human ovarian cancer cell lines OVCAR-3 (high expresser of CA125); endogenous in cells; host or cells: NIH:OVCAR-3
Source text: B) NIH:OVCAR-3 cellswere transiently transfected with pSTCF.Golgi-OC125-3.11 or pSTCF.KDEL-VK-8-1.9 constructs and 48 hrs later the cells were fixed in ice-cold methanol. Expression of scFvs and CA125 was detected using the anti-c-myc A14 polyclonal antibody and anti-CA125 M11 monoclonal antibody. Oregon green anti-rabbit and Texas red anti-mouse secondary antibodies were used.
Anti-CA125 scFvs act therefore act as potent negative modulators of CA125.
Immunofluorescence—Transiently transfected NIH-OVCAR-3 cells or stable NIH:OVCAR-3 clones expressing the various anti-CA125 scFvs were grown on glass slide until a 50% confluence was reached. […] Slides were next washed 3 times in cold PBS, incubated for 30 min at room temperature with anti-mouse or anti-rabbit secondary antibodies coupled to Texas Red or Oregon green (1:1000), washed with PBS and mounted for visualization by fluorescence microscopy. Expression of the various anti-CA125 scFvs and CA125 was detected using anti-c-myc antibody (9E10, 1:500) and OC125 antibody (1:500). Localization of the scFvs was determined by comparing their pattern of expression with that of calreticulin and ADP-ribosylation factor for ER and Golgi localization using anti-calreticulin antibody (1:10000) anti-calreticulin and anti-ADP-ribosylation factor (1:400).

[2] = system: purified human CA125; assay: CA125 binding analysis by ELISA (periplasmic extracts); conditions: commercially purified human CA125
Source text: A) CA125 binding activity of anti-CA125 OC125, VK-8-1.9 and VK-8-4.5 scFvs present in periplasmic extracts of bacteria as well as anti-Bcl2 4D7 scFv compared to parental Mabs OC125 and VK-8 and to PBS and periplasmic extract from bacteria, uninduced, IPTG-induced and controls.
The inventors constructed single-chain antibody libraries derived from the OC125 and VK-8 hybridoma cell lines specific for CA125. The two scFv libraries were screened for CA125 binding activity by ELISA using commercially purified human CA125. […] The inventors hypothesized that if those scFvs (CA125 binders) once expressed intracellularly were localized to and retained within the ER or the Golgi then CA125 antigen would be entrapped during synthesis and thus be unable to localize at cell surface and interact with other intracellular and/or extracellular proteins to achieve its function(s). The scFvs were targeted to the ER or trans-median Golgi by sequence fusion with an Igκ secretion leader and a KDEL signal or fusion with the N-terminal 81 amino acids of human beta 1,4-galactosyltransferase, a protein resident of the trans-medial Golgi (47-49) in addition ot a c-myc tag at the C-terminus.
Binding analysis by ELISA—Periplasmic extracts were prepared as previously described (29). […] The OD was read at 450 ηm in an ELISA plate reader.

[3] = biological target: T1, CA125; assay: Co-immunoprecipitation of scFvs with anti-CA125 MAbs from transiently transfected NIH:OVCAR-3 cells; format: binding; conditions: transient transfection in NIH:OVCAR-3
Source text: C) Immunoprecipitation and co-immunoprecipitation of Golgi- and ER-targeted OC125-3.11 scFv from transient transfection of pSTCF.GOLGI-OC125-3.11 and pSTCF.KDEL-OC125-3.11 in NIH:OVCAR-3 human ovarian cancer cells using anti-c-myc, anti-CA125 Mabs OC125 and VK-8, western blot probed with anti-c-myc 9E10 antibody.
D) Immunoprecipitation and co-immunoprecipitation of Golgi- and ER-targeted VK-8-1.9 scFv from transient transfection of pSTCF-GOLGI-VK8-1.9 and pSTCF.KDEL-VK8-1.9 in NIH:OVCAR-3 human ovarian cancer cells using anti-c-myc, anti-CA125 Mabs OC125 and VK-8, Western blot probed with anti-c-myc 9E10 antibody.
E) Immunoprecipitation and co-immunoprecipitation of ER-targeted VK-8-4.5 scFv from transient transfection of pSTCF.KDEL-VK8-4.5 in NIH:OVCAR-3 human ovarian cancer cells using anti-c-myc, anti-CA125 Mabs OC125 and VK-8, western blot prober with anti-c-myc 9E10 antibody. […]
Immunoprecipitation—NIH-OVCAR-3 cells were transiently transfected with the various scFv constructs using commercially available FuGene 6 transfection agent using the manufacturer's instruction. […] Protein concentration was measured by the Bradford method using the Bio-Rad protein assay according to the instruction provided by the manufacturer. […] Agarose or sepharose beads were pelleted and supernatants were analyzed by immunoblots for the presence of the various scFvs.

CA125 binding activity by ELISA [2]: bound to CA125 | co-immunoprecipitation with CA125 using anti-CA125 OC125 and VK-8 MAbs [3]: co-immunoprecipitated
B1: OC125-3.11: anti-CA125 single-chain antibody derived from the OC 125 monoclonal antibody, fragment coded by SEQ ID NO 2 (protein)
chain: QVQLQQSGTVLARPGASVKMSLQASGYTFTSYWMHWVKQRPGQGLEWIGAIYPGNSDTSYNQKFKGKAKLTAVTSTSTAYMELSSLTNEDSAVYYCTRSYDWYFDVWGQGTTVTVSSGGGGSGGGGSGGGGSDIELTQSPAILSVSPGERVSFSCRASQSIGTDMHWYQQRTNGSPRLLIKYASESISGIPSRFSGSGSGTDFTLSINSVESEDIADYYCQQSYSWPLTFGAGTKLEIK
modifications: Golgi targeting; VH-linker-VL portion of OC125-3.11
expression of CA125 at the cell surface [1]: lost expression of CA125 at the cell surface

From patent US20060134116A1, “Ca 125 tumor antigen function and uses thereof” (Universite De Sherbrooke, priority 2002, published 2006)
